Some results are limits rather than exact numbers.

Holding throughout (experiment): cell-based or functional assay
For assay [1], the target named is HIV-1 MGRM-C-002 Env (HIV-1).
Assay [2] addresses HIV-1 MGRM-F1-022 Env (pseudovirus) (HIV-1).
Assay [3] concerns the target HIV-1 JRCSF envelope glycoprotein (Env) on pseudovirus (HIV-1).
Assay [4] deals with HIV-1 93UG077 envelope glycoprotein (Env) (HIV-1).
For assay [5], the target named is HIV-1 94UG103 envelope protein (Env) on pseudovirus (HIV-1).
The target in assay [6] is HIV-1 93UG077 envelope glycoprotein (Env) on pseudovirus (HIV-1).
For assay [7], the target named is HIV-1 Env of pseudovirus 92BR020, clade B (HIV-1).
The target in assay [8] is HIV-1 Env of pseudovirus SC422661.8 (Acute), clade B (HIV-1).
Assay [9] deals with HIV-1 Env of pseudovirus MGRM-Chronic-B-001, clade B (HIV-1).
The target of assay [10] is HIV-1 MGRM-A-002 envelope glycoprotein (Env) (HIV-1).
In assay [11] the target is HIV-1 MGRM-C-020 Env (HIV-1).
Assay [12] addresses HIV-1 Env of isolate MGRM-D-001 (clade D) (HIV-1).
Assay [13] addresses HIV-1 94UG103 envelope glycoprotein (Env) on pseudovirus (HIV-1).
For assay [14], the target named is HIV-1 Env of isolate MGRM-AE-001 (CRF01_AE), on pseudovirus (HIV-1).
The target of assay [15] is HIV-1 JR-CSF Env N160K (HIV-1 (isolate JR-CSF)) (UniProt P20871).
Assay [16] addresses HIV-1 Env of isolate MGRM-AE-002 (CRF01_AE), on pseudovirus (HIV-1).
Assay [17] addresses HIV-1 Env of isolate MGRM-F1-017 (subtype F), on pseudovirus (HIV-1).
In assay [18] the target is HIV-1 Env of isolate MGRM-AG-008 (CRF_AG), on pseudovirus (HIV-1).
In assay [19] the target is HIV-1 Env of isolate 93IN905 (HIV-1).
Assay [20] deals with HIV-1 JR-CSF Env E172A (HIV-1 (isolate JR-CSF)) (UniProt P20871).
The target in assay [21] is HIV-1 Env of isolate MGRM-AG-006 (CRF_AG), on pseudovirus (HIV-1).
Assay [22] addresses HIV-1 Env of isolate MGRM-D-020 (HIV-1).
Assay [23] concerns the target HIV-1 Env of isolate MGRM-C-015 (HIV-1).
The target in assay [24] is HIV-1 Env of isolate VLGCA1 (clade A), on pseudovirus (HIV-1).
In assay [25] the target is HIV-1 Env of isolate 92TH021 (CRF01_AE), on pseudovirus (HIV-1).
The target in assay [26] is HIV-1 Env of isolate MGRM-AG-005 (CRF_AG), on pseudovirus (HIV-1).
The target of assay [27] is HIV-1 Env of isolate MGRM-C-008 (HIV-1).

Sequence of 5345_I01 (PGT-137) (antibody) (VH): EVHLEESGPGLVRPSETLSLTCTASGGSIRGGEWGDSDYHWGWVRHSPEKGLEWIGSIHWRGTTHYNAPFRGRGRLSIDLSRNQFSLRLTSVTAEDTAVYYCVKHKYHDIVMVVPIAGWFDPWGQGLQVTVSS
Sequence of 5345_I01 (PGT-137) (antibody) (VL): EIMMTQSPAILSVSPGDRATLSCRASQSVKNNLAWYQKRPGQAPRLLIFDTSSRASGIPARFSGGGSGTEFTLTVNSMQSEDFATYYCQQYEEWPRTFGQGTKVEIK
Sequence of 1443_C16 (PG16) (TCN-116) (antibody) (VH): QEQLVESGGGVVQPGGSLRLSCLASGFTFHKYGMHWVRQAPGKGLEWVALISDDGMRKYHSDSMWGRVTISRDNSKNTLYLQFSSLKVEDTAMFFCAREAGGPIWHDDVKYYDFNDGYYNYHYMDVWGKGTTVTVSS
Sequence of 1443_C16 (PG16) (TCN-116) (antibody) (VL): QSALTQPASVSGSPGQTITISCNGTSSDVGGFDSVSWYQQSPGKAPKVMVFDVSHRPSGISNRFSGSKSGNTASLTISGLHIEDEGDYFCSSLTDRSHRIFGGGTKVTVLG
Sequence of 5329_C19 (PGT-136) (antibody) (VH): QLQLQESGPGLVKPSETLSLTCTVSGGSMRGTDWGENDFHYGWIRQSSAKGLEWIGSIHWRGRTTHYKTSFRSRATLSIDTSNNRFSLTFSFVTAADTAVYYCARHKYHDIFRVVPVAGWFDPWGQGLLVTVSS
Sequence of 5329_C19 (PGT-136) (antibody) (VL): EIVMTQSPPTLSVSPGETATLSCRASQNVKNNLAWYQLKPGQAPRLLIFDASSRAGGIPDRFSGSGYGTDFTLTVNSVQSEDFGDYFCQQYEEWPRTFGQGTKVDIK

In general, IC50 refers to the concentration that inhibits the measured activity by half. Read a low IC50 as inhibition by little substance. With 2F5 (antibody), the IC50 is 44.7 µg/mL in assay [1] and more than 50 µg/mL in assay [11]. Moreover, the IC50 (µg/ml), pseudovirus neutralization in assay [2] is 1.26 µg/mL; in assay [4], 3.3 µg/mL; in [7] it was more than 50 µg/mL; in assay [8], more than 50 µg/mL; in assay [9], 0.55 µg/mL; in [10] it was more than 50 µg/mL. In [12], this substance registered an IC50 (µg/ml), pseudovirus neutralization of 0.63 µg/mL. In addition, the figures for the IC90 (pseudovirus neutralization) in [3], in assay [6] and in assay [13] were 25.3 µg/mL, 33.4 µg/mL and 46.6 µg/mL, respectively. Further, the neutralization IC50 in [5] was 3.79 µg/mL.

Turning to 2G12 (antibody), the IC50 in assay [1] was more than 50 µg/mL; in assay [11], 18.6 µg/mL. Moreover, the IC50 (µg/ml), pseudovirus neutralization in assay [2] was more than 50 µg/mL; in assay [4], more than 50 µg/mL; in assay [7], 4.84 µg/mL; in [8] it was 0.84 µg/mL; in assay [9], 0.08 µg/mL; in [10], more than 50 µg/mL. The same substance gave an IC50 (µg/ml), pseudovirus neutralization in assay [12] of more than 50 µg/mL. Also, the IC90 (pseudovirus neutralization) in assay [3] is 5.38 µg/mL; in [6] it was more than 50 µg/mL; in [13], more than 50 µg/mL. The same substance came in with a neutralization IC50 in assay [5] of more than 50 µg/mL.

Take 4E10 (antibody): the IC50 in assay [1] was determined as 18.2 µg/mL; in assay [11], 2.8 µg/mL. Besides, the IC50 (µg/ml), pseudovirus neutralization in assay [2] is 1.01 µg/mL; in assay [4], 10.6 µg/mL; in assay [7], more than 50 µg/mL; in assay [8] it was 6.35 µg/mL; in assay [9], 1.46 µg/mL; in [10] it was 6.45 µg/mL. This substance also gave an IC50 (µg/ml), pseudovirus neutralization in [12] of 1.84 µg/mL. In addition, the IC90 (pseudovirus neutralization) in assay [3] is 44.1 µg/mL; in [6] it was more than 50 µg/mL; in assay [13], more than 50 µg/mL. The substance also came in with a neutralization IC50 in [5] of 9.7 µg/mL.

For 1443_C16 (PG16) (TCN-116) (antibody), the results for the IC50 in [1] and in assay [11] were 28.3 µg/mL and more than 50 µg/mL, respectively. For the same substance, the IC50 (µg/ml), pseudovirus neutralization in assay [2] was 0.08 µg/mL; in assay [4], more than 50 µg/mL; in assay [7] it was more than 50 µg/mL; in [8], 1.13 µg/mL; in [9] it was more than 50 µg/mL; in assay [10] it was 0.004 µg/mL. Also, the IC50 (µg/ml), pseudovirus neutralization in assay [12] was more than 50 µg/mL. The values for the IC90 (pseudovirus neutralization) in assay [3], in [6] and in [13] were 0.013 µg/mL, more than 50 µg/mL and 1.59 µg/mL, respectively. The neutralization IC50 in assay [5] came to 0.008 µg/mL.

On to 1495_C14 (PGC14) (antibody), for which the IC50 in [1] and in assay [11] was more than 50 µg/mL in each case. The IC50 (µg/ml), pseudovirus neutralization in assay [2] was more than 50 µg/mL; in assay [4] it was more than 50 µg/mL; in assay [7], 4 µg/mL; in assay [8] it was more than 50 µg/mL; in assay [9], more than 50 µg/mL; in assay [10] it was more than 50 µg/mL. This substance gave an IC50 (µg/ml), pseudovirus neutralization in assay [12] of more than 50 µg/mL. Also, in assay [5], the neutralization IC50 was more than 50 µg/mL.

In the case of 5114_A19 (PGT-128) (antibody), the IC50, single-round pseudovirus neutralization in [14] came out at 0.069 µg/mL; in assay [16] it was 0.522 µg/mL; in assay [18] it was 0.668 µg/mL; in [21], 0.009 µg/mL; in assay [24], 0.838 µg/mL; in assay [25], 0.01 µg/mL. The substance also registered an IC50, single-round pseudovirus neutralization in assay [26] of 0.037 µg/mL. The figures for the Fold IC50 increase relative to wild-type in assay [15] and in [20] were 1 fold and 2.5 fold, respectively. For the same substance, the IC50, pseudovirus neutralization in [17] worked out at 11.7 µg/mL. The IC50 in assay [19] is 0.009 µg/mL; in [22], 0.011 µg/mL; in assay [23] it was 0.196 µg/mL; in assay [27] it was 0.373 µg/mL.

Take 5136_H01 (PGT-131) (antibody): the IC50, single-round pseudovirus neutralization in assay [14] was 4.8 µg/mL; in assay [16] it was more than 50 µg/mL; in assay [18] it was more than 50 µg/mL; in [21] it was 0.019 µg/mL; in [24], more than 50 µg/mL; in [25] it was 0.014 µg/mL. In addition, the IC50, single-round pseudovirus neutralization in assay [26] is 1.04 µg/mL. Further, in assay [15], the Fold IC50 increase relative to wild-type came out at 0.4 fold. For the same substance, in [17], the IC50, pseudovirus neutralization is more than 50 µg/mL. Further, the IC50 in [19] is 0.177 µg/mL; in assay [22], more than 50 µg/mL; in assay [23] it was 1.01 µg/mL; in [27], more than 50 µg/mL.

Turning to 5147_N06 (PGT-130) (antibody), the IC50, single-round pseudovirus neutralization in assay [14] was 1 µg/mL; in assay [16], 1.53 µg/mL; in [18] it was more than 50 µg/mL; in [21] it was 0.009 µg/mL; in assay [24], more than 50 µg/mL; in [25], 0.009 µg/mL. Further, the IC50, single-round pseudovirus neutralization in assay [26] came to 0.54 µg/mL. Also, the Fold IC50 increase relative to wild-type is 3.4 fold in assay [15] and 1.4 fold in [20]. The IC50, pseudovirus neutralization in assay [17] is more than 50 µg/mL. The IC50 in assay [19] worked out at 0.02 µg/mL; in assay [22], 24.7 µg/mL; in assay [23] it was 0.344 µg/mL; in [27], 7.28 µg/mL. The IC50 (ug/ml), neutralizing activity in assay [6] was more than 10 µg/mL; in [13], 0.635 µg/mL. In addition, the neutralization IC50 in [12] was more than 10 µg/mL. Further, the neutralization IC80 in [12] is more than 10 µg/mL. Also, in assay [12], the neutralization IC90 was more than 10 µg/mL. For the same substance, the neutralization IC95 in assay [12] was more than 10 µg/mL.

For 5329_C19 (PGT-136) (antibody), the IC50, single-round pseudovirus neutralization in assay [14] is more than 50 µg/mL; in assay [16], more than 50 µg/mL; in [18], more than 50 µg/mL; in assay [21], 29.1 µg/mL; in [24] it was more than 50 µg/mL; in [25], more than 50 µg/mL. The same substance displayed an IC50, single-round pseudovirus neutralization in assay [26] of more than 50 µg/mL. For the same substance, the IC50, pseudovirus neutralization in assay [17] was more than 50 µg/mL. Besides, the concentration for half-maximal inhibition (IC50) in assay [19] was 0.011 µg/mL; in assay [22] it was more than 50 µg/mL; in assay [23], 11.1 µg/mL; in [27], more than 50 µg/mL.

For 5343_B08 (PGT-135) (antibody), the IC50, single-round pseudovirus neutralization is more than 50 µg/mL in assay [14]; more than 50 µg/mL in assay [16]; more than 50 µg/mL in [18]; 17.9 µg/mL in [21]; more than 50 µg/mL in assay [24]; more than 50 µg/mL in [25]. In assay [26], the IC50, single-round pseudovirus neutralization is more than 50 µg/mL. For the same substance, the Fold IC50 increase relative to wild-type amounted to 7.7 fold in assay [15] and 1.3 fold in [20]. Besides, the IC50, pseudovirus neutralization in assay [17] was 7.79 µg/mL. Also, the IC50 in [19] is 0.011 µg/mL; in assay [22], more than 50 µg/mL; in assay [23] it was 0.104 µg/mL; in [27], more than 50 µg/mL.

In the case of 5345_I01 (PGT-137) (antibody), the IC50, single-round pseudovirus neutralization in [14] is more than 50 µg/mL; in assay [16] it was more than 50 µg/mL; in assay [18], more than 50 µg/mL; in assay [21] it was 28.3 µg/mL; in assay [24], more than 50 µg/mL; in assay [25], more than 50 µg/mL. Besides, in assay [26], the IC50, single-round pseudovirus neutralization was more than 50 µg/mL. In addition, in assay [17], the IC50, pseudovirus neutralization is more than 50 µg/mL. The IC50 was 0.042 µg/mL in [19], more than 50 µg/mL in assay [22], 1.98 µg/mL in [23] and more than 50 µg/mL in assay [27].
